Test results: patent US20220119534A1 (DRAGONFLY THERAPEUTICS, published 2022)

How the values were obtained:
[1] = molecular target: T1, mFc-hNKG2D (human, UniProt P26718 73-216); test: SPR Biacore 8K 37 C; mFc-hNKG2D captured on anti-mFc chip, TriNKET as analyte; steady state fit; after 2 wks 40 C at pH 5.0
T1 construct: extracellular domain; Made in house (Dragonfly Tx); the order of tag and ECD follows the name mFc-hNKG2D; also called mFc-tagged human NKG2D; not shown: mouse Fc tag
T1 sequence (looked up): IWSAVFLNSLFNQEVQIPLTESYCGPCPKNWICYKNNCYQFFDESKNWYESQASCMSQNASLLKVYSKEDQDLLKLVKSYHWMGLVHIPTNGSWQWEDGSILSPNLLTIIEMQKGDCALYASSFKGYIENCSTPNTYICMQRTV

[2] = molecular target: T2, mFc-hNKG2D (human, UniProt P26718 73-216); test: SPR; control sample (low pH hold study)
T2 construct: extracellular domain; Recombinant mFc-tagged NKG2D dimer, made in house; also called human NKG2D; not shown: mouse Fc tag
T2 sequence (looked up): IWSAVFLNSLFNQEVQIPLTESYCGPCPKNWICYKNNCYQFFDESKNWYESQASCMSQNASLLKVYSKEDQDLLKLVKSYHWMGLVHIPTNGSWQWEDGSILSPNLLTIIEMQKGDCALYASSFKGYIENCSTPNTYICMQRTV

[3] = molecular target: T3, Human CD16a V158 (human, UniProt P08637 17-208, biotinylated); test: SPR; control sample (low pH hold study)
T3 construct: Bought recombinant receptor; also called hCD16a (V158); hFcγRIIIa V158

[4] = molecular target: T4, Human CLEC12A-His (human, UniProt Q5QGZ9 65-265); test: SPR; control sample (low pH hold study)
T4 construct: Recombinant soluble protein made in house; also called hCLEC12A-His; hCLEC12A; not shown: His tag
T4 sequence: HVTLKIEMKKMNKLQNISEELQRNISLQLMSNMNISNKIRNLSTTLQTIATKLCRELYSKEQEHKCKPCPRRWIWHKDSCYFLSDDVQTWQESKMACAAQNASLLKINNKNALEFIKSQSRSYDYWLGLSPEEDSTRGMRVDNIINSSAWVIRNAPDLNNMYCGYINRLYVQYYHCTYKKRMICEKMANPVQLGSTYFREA

[5] = molecular target: T2, mFc-hNKG2D; test: SPR; sample after forced oxidation (0.02% H2O2, 24 h)
[6] = molecular target: T3, Human CD16a V158; test: as above
[7] = molecular target: T5, recombinant human CLEC12A-His (human, UniProt Q5QGZ9 65-265); test: SPR, CLEC12A binding
T5 construct: also called hCLEC12A-His; hCLEC12A
T5 sequence: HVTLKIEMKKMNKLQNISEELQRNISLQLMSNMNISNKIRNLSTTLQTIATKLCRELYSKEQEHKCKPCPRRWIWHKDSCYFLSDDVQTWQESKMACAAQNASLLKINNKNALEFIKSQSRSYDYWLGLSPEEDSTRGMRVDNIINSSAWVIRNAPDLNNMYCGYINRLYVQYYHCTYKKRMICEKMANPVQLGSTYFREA

T3 sequence (P08637 17-208 F176V limits assumed): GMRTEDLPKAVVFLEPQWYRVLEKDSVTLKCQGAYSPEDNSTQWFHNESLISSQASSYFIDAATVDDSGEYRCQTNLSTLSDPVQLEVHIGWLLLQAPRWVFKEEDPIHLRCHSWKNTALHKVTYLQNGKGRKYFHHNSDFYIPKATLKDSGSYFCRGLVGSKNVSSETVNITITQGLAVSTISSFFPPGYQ

B1: F3'-1602 TriNKET (bispecific antibody, human IgG1, kappa)
chain: QLQLQESGPGLVKPSETLSLTCTVSGFSLTNYGLHWIRQPPGKCLEWIGVIWSGGKTDYNPSLKSRVTISKDTSKNQFSLKLSSVQAADTAVYYCAKYDYDDSLDYWGQGTLVTVSSGGGGSGGGGSGGGGSGGGGSDIQMTQSPSSLSASVGDRVTITCHASQNINFWLSWYQQKPGKAPKLLIYEASNLHTGVPSRFSGSGSGTRFTLTISSLQPEDIATYYCQQSHSYPLTFGCGTKLEIKGSDKTHTCPPCPAPELLGGPSVFLFPPKPKDTLMISRTPEVTCVVVDVSHEDPEVKFNWYVDGVEVHNAKTKPREEQYNSTYRVVSVLTVLHQDWLNGKEYKCKVSNKALPAPIEKTISKAKGQPREPRVYTLPPCRDELTKNQVSLTCLVKGFYPSDIAVEWESNGQPENNYKTTPPVLVSDGSFTLYSKLTVDKSRWQQGNVFSCSVMHEALHNHYTQKSLSLSPG
heavy: EVQLVESGGGLVKPGGSLRLSCAASGFTFSSYSMNWVRQAPGKGLEWVSSISSSSSYIYYADSVKGRFTISRDNAKNSLYLQMNSLRAEDTAVYYCARGAPIGAAAGWFDPWGQGTLVTVSSASTKGPSVFPLAPSSKSTSGGTAALGCLVKDYFPEPVTVSWNSGALTSGVHTFPAVLQSSGLYSLSSVVTVPSSSLGTQTYICNVNHKPSNTKVDKKVEPKSCDKTHTCPPCPAPELLGGPSVFLFPPKPKDTLMISRTPEVTCVVVDVSHEDPEVKFNWYVDGVEVHNAKTKPREEQYNSTYRVVSVLTVLHQDWLNGKEYKCKVSNKALPAPIEKTISKAKGQPREPQVCTLPPSRDELTENQVSLTCLVKGFYPSDIAVEWESNGQPENNYKTTPPVLDSDGSFFLYSWLTVDKSRWQQGNVFSCSVMHEALHNHYTQKSLSLSPG
light: DIQMTQSPSSVSASVGDRVTITCRASQGISSWLAWYQQKPGKAPKLLIYAASSLQSGVPSRFSGSGSGTDFTLTISSLQPEDFATYYCQQGVSFPRTFGGGTKVEIKRTVAAPSVFIFPPSDEQLKSGTASVVCLLNNFYPREAKVQWKVDNALQSGNSQESVTEQDSKDSTYSLSSTLTLSKADYEKHKVYACEVTHQGLSSPVTKSFNRGEC
notes: Trispecific F3' format: CLEC12A scFv-Fc paired with NKG2D Fab-Fc; Stressed and control samples of the stability studies are the same molecule; also called AB0237
Question: With B1 as the binder, how does the Kd [1] read?
Answer: 677 nM

B2: AB0192 TriNKET (other)
chain: EVQLVESGGGVVQPGGSLRLSCAASGFTFNAFGMHWVRQAPGKCLEWVAFISSGSTSIYYANTVKGRFTISRDNSKNTLYLQMNSLRAEDTAVYYCARDGYPTGGAMDYWGQGTSVTVSSGGGGSGGGGSGGGGSGGGGSDIQMTQSPSSLSASVGDRVTITCKASQDIYNYLSWFQQKPGKAPKPLIYRANILVSGVPSRFSGSGSGQDYTFTISSLQPEDIATYYCLQFDAFPFTFGCGTKLEIKGSDKTHTCPPCPAPELLGGPSVFLFPPKPKDTLMISRTPEVTCVVVDVSHEDPEVKFNWYVDGVEVHNAKTKPREEQYNSTYRVVSVLTVLHQDWLNGKEYKCKVSNKALPAPIEKTISKAKGQPREPRVYTLPPCRDELTKNQVSLTCLVKGFYPSDIAVEWESNGQPENNYKTTPPVLVSDGSFTLYSKLTVDKSRWQQGNVFSCSVMHEALHNHYTQKSLSLSPG
heavy: EVQLVESGGGLVKPGGSLRLSCAASGFTFSSYSMNWVRQAPGKGLEWVSSISSSSSYIYYADSVKGRFTISRDNAKNSLYLQMNSLRAEDTAVYYCARGAPIGAAAGWFDPWGQGTLVTVSSASTKGPSVFPLAPSSKSTSGGTAALGCLVKDYFPEPVTVSWNSGALTSGVHTFPAVLQSSGLYSLSSVVTVPSSSLGTQTYICNVNHKPSNTKVDKKVEPKSCDKTHTCPPCPAPELLGGPSVFLFPPKPKDTLMISRTPEVTCVVVDVSHEDPEVKFNWYVDGVEVHNAKTKPREEQYNSTYRVVSVLTVLHQDWLNGKEYKCKVSNKALPAPIEKTISKAKGQPREPQVCTLPPSRDELTENQVSLTCLVKGFYPSDIAVEWESNGQPENNYKTTPPVLDSDGSFFLYSWLTVDKSRWQQGNVFSCSVMHEALHNHYTQKSLSLSPG
light: DIQMTQSPSSVSASVGDRVTITCRASQGISSWLAWYQQKPGKAPKLLIYAASSLQSGVPSRFSGSGSGTDFTLTISSLQPEDFATYYCQQGVSFPRTFGGGTKVEIKRTVAAPSVFIFPPSDEQLKSGTASVVCLLNNFYPREAKVQWKVDNALQSGNSQESVTEQDSKDSTYSLSSTLTLSKADYEKHKVYACEVTHQGLSSPVTKSFNRGEC
notes: the condition stands under assay; also called AB0192 Lot AB0192-005
Question: For B2, which Kd [2] is on record?
Answer: 779 nM

Question: What about the koff [2] of the same binder?
Answer: 0.146 s⁻¹

Question: What about the kon [2] of the same binder?
Answer: 188000 M⁻¹ s⁻¹

Question: What about the Kd [3] of the same binder?
Answer: 178 nM

Question: And the koff [3]?
Answer: 0.0199 s⁻¹

Question: What about the kon [3] of the same binder?
Answer: 112000 M⁻¹ s⁻¹

Question: What about the Kd [4] of the same binder?
Answer: 1.83 nM

Question: And the koff [4]?
Answer: 0.00125 s⁻¹

Question: What about the kon [4] of the same binder?
Answer: 685000 M⁻¹ s⁻¹

Question: What about the Kd [5] of the same binder?
Answer: 612 nM

Question: And the koff [5]?
Answer: 0.119 s⁻¹

Question: And the kon [5]?
Answer: 195000 M⁻¹ s⁻¹

Question: What about the Kd [6] of the same binder?
Answer: 162 nM

Question: What about the koff [6] of the same binder?
Answer: 0.0192 s⁻¹

Question: What about the kon [6] of the same binder?
Answer: 119000 M⁻¹ s⁻¹

B3: F3'-1602 TriNKET (other)
chain: QLQLQESGPGLVKPSETLSLTCTVSGFSLTNYGLHWIRQPPGKCLEWIGVIWSGGKTDYNPSLKSRVTISKDTSKNQFSLKLSSVQAADTAVYYCAKYDYDDSLDYWGQGTLVTVSSGGGGSGGGGSGGGGSGGGGSDIQMTQSPSSLSASVGDRVTITCHASQNINFWLSWYQQKPGKAPKLLIYEASNLHTGVPSRFSGSGSGTRFTLTISSLQPEDIATYYCQQSHSYPLTFGCGTKLEIKGSDKTHTCPPCPAPELLGGPSVFLFPPKPKDTLMISRTPEVTCVVVDVSHEDPEVKFNWYVDGVEVHNAKTKPREEQYNSTYRVVSVLTVLHQDWLNGKEYKCKVSNKALPAPIEKTISKAKGQPREPRVYTLPPCRDELTKNQVSLTCLVKGFYPSDIAVEWESNGQPENNYKTTPPVLVSDGSFTLYSKLTVDKSRWQQGNVFSCSVMHEALHNHYTQKSLSLSPG
heavy: EVQLVESGGGLVKPGGSLRLSCAASGFTFSSYSMNWVRQAPGKGLEWVSSISSSSSYIYYADSVKGRFTISRDNAKNSLYLQMNSLRAEDTAVYYCARGAPIGAAAGWFDPWGQGTLVTVSSASTKGPSVFPLAPSSKSTSGGTAALGCLVKDYFPEPVTVSWNSGALTSGVHTFPAVLQSSGLYSLSSVVTVPSSSLGTQTYICNVNHKPSNTKVDKKVEPKSCDKTHTCPPCPAPELLGGPSVFLFPPKPKDTLMISRTPEVTCVVVDVSHEDPEVKFNWYVDGVEVHNAKTKPREEQYNSTYRVVSVLTVLHQDWLNGKEYKCKVSNKALPAPIEKTISKAKGQPREPQVCTLPPSRDELTENQVSLTCLVKGFYPSDIAVEWESNGQPENNYKTTPPVLDSDGSFFLYSWLTVDKSRWQQGNVFSCSVMHEALHNHYTQKSLSLSPG
light: DIQMTQSPSSVSASVGDRVTITCRASQGISSWLAWYQQKPGKAPKLLIYAASSLQSGVPSRFSGSGSGTDFTLTISSLQPEDFATYYCQQGVSFPRTFGGGTKVEIKRTVAAPSVFIFPPSDEQLKSGTASVVCLLNNFYPREAKVQWKVDNALQSGNSQESVTEQDSKDSTYSLSSTLTLSKADYEKHKVYACEVTHQGLSSPVTKSFNRGEC
notes: CLEC12A scFv-Fc, NKG2D A49MI Fab-Fc, human IgG1 Fc; also called AB0237
Question: How did the Kd [7] turn out when B3 was run?
Answer: 0.6 nM
